The target in this assay is T1, OX1R-Rluc (human, UniProt O43613 1-425).
T1 construct: Orexin type 1 receptor (OX1R), human cDNA (pcDNA3.1-OX1R, cDNA Resource Centre); construct made 'as described'; BRET donor; also called orexin type 1 receptor; Orexin 1 receptor; source: HEK293, transiently transfected, in living cells; not shown: Rluc, C-terminal, kept
T1 sequence (looked up): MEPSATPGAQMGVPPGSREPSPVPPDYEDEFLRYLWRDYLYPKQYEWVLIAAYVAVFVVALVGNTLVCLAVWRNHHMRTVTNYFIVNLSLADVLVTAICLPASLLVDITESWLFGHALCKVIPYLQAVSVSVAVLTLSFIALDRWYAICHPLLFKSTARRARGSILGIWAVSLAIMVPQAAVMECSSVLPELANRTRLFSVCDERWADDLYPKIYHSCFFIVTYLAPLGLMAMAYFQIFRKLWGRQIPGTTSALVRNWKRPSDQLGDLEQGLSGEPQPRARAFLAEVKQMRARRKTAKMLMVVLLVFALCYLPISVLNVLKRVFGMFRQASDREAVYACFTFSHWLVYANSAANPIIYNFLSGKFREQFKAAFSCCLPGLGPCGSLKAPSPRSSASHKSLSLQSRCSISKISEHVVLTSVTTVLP
Put plainly: FRET or BRET; BRET in living HEK293 cells; donor (Rluc fusion) and acceptor (EYFP fusion) plasmids 1:3; coelenterazine h 5 μM; also after ghrelin (100 nM) and/or orexin-A (100 nM) or vehicle for 10 min. To be noted: partners not purified. (BRET reads energy transfer from a luciferase to a nearby fluorophore.)

The record followed here is article PMC6056640, “Ghrelin Through GHSR1a and OX1R Heterodimers Reveals a Gαs–cAMP-cAMP Response Element Binding Protein Signaling Pathway in Vitro” (Frontiers in Molecular Neuroscience, 2018).

B1: GHSR1a-EYFP (receptor, UniProt Q92847 1-366, looked up)
chain: MWNATPSEEPGFNLTLADLDWDASPGNDSLGDELLQLFPAPLLAGVTATCVALFVVGIAGNLLTMLVVSRFRELRTTTNLYLSSMAFSDLLIFLCMPLDLVRLWQYRPWNFGDLLCKLFQFVSESCTYATVLTITALSVERYFAICFPLRAKVVVTKGRVKLVIFVIWAVAFCSAGPIFVLVGVEHENGTDPWDTNECRPTEFAVRSGLLTVMVWVSSIFFFLPVFCLTVLYSLIGRKLWRRRRGDAVVGASLRDQNHKQTVKMLAVVVFAFILCWLPFHVGRYLFSKSFEPGSLEIAQISQYCNLVSFVLFYLSAAINPILYNIMSKKYRVAVFRLLGFEPFSQRKLSTLKDESSRAWTESSINT
notes: Growth hormone secretagogue receptor 1α (GHSR1a); ORF inserted into the EYFP-N1 vector; cDNA from pcDNA3.1-GHSR1a (cDNA Resource Centre); BRET and FRET acceptor; The FRET methods call it EYFP-GHSR1a, but the construction paragraph puts EYFP on the C-terminus; also called growth hormone secretagogue receptor 1α; EYFP-GHSR1a; source: HEK293, transiently transfected, in living cells; not shown: …
Turning to B1, the mBRET ratio is 190.
